Data: article PMC5904407

What was measured:
[1] = molecular target: Full-length LapA (FL-LapA; residues 1 to 378), minus N-terminal signal sequence (Legionella pneumophila strain 130b); experiment: crystal structure
[2] = molecular target: Full-length NttD (FL-NttD; residues 1 to 373), minus N-terminal signal sequence (Legionella pneumophila strain 130b); experiment: SEC

Substance | stoichiometry N [1] | stoichiometry N [2]
Full-length LapA (FL-LapA; residues 1 to 378), minus N-terminal signal sequence (enzyme) | 2 | 
Full-length NttD (FL-NttD; residues 1 to 373), minus N-terminal signal sequence (natural protein) |  | 2
